The DeepSol protein solubility set

Assay: soluble on expression in E. coli; label from the status in PepcDB or PDB records

Row | Sequence | soluble on expression in E. coli
1 | MGGASSPRIPSRRSAPYFTSLAFFGSSYIKVKNNRNKMLNPTDAASVALSFSVPFQMSGENPLSKLVEHCNKFVPGADIKMKAEPAKPESLLLPTDMNAYSPYLATPNWWVDQTGWPQLYPTVTTASSVDVYQNYLASSQLGGLLSSSVSAVASQLPAGINAQSALNITSQQRTIAKSFQHTKPMASSSSIPSVLTASNSSANSLVSSGSESVSARGTSGSGGTGKYPSSRTANKCECPNCHEIEKFGPNAIAARKRGVHNCHIAGCGKVYNKSSHLKAHLRWHSGERQMKKRSGDSS | not soluble
2 | MGGCCSQEGCNTRPRYLPLKCYPGLPMRATRRLDLSAVERALREVQGRFAELSQHFTEPRDPFTDEVLLNVVEGYALIDDYVARGIDLFDLQQLNLMLEINATVLCGSDPARRLEFAPHLAATEAHFFNNVEGGIKDLYNWYCAYRSDSIWKRAAGVYVRILSKPQLFIEGNNRTGSLIVSYLLMRAGLPPFVLSLDNAEGYFNPSSVIRNSAKHGVKALYELPKIKKKYAAFLEAKAPEPGKFFLNGTPVPACEGSRLEHHHHHH | soluble
3 | MGGFLVLNSSNNVVRTVPSKKRKHPEYKSKGSQIRELISGIRSDNLREAVRLPQGVDINEWFAMNNFFNQISLLYATLEEFCTQTTCPVMNAGRYEYRWADGTTITKPKTVSAPKYVEYLIDWVETEIDNEAIFPKNPGEPFPPNFEDFVKRILRKLFRVYAHIYYSHFHEIVALNEQAHLNTCFKHFLLFVSEFQLVDKEKEMAPIKSLVETMLDQ | soluble
4 | MGGGGGGMEQFNAFKSLLKKHYEKTIGFHDKYIKDINRFVFKNNVLLILLENEFARNSLNDNSEIIHLAESLYEGIKSVNFVNEQDFFFNLAKLEENSRDTLYQNSG | soluble
5 | MGGGHHEPFKIPNYSIYSNFRDFPQLAQHEKRLAQIGLKDPWIRNYVYLYDRKYPHVVGQWAHFKKLILPGWKAGVAFTAALIFVEEAYQYKTHGTTSWDGHH | not soluble
6 | MGGSHHHHHHGMASALKEKKSQETEVTSTLEQQKICLVLESCLKKNSDEEGSQEKGGDDSQQKFIAHVPVPSQQEIEEALVRRKKMELLQKYASETLQAQSEEARRLLGY | not soluble
7 | MGGVFSSASSNQAQITGILQELERTRLEREIALAHLQERRRIAFKIAEEREKFNWIACGGSLVVVLSALSSFHHKNLLHVIPIFPMASFIGYKAHFCYGDQLKKISETSTQLLEESVDALVPLPPTIADVRSRSKQIKEEESSNY | not soluble
8 | MGHHHHHHAKAVAPTTGWKQENGMWYFYNTDGSMATGWVQVNGSWYYLNSNGSMKVNQWFQVGGKWYYVNTSGELAVNTSIDGYRVNDNGEWVR | soluble
9 | MGHHHHHHGGHMSLMASISSLGVGSGLDLSSILDSLTAAQKATLTPISNQQSSFTAKLSAYGTLKSALTTFQTANTALSKADLFSATSTTSSTTAFSATTAGNAIAGKYTISVTHLAQAQTLTTRTTRDDTKTAIATSDSKLTIQQGGDKDPITIDISAANSSLSGIRDAINNAKAGVSASIINVGNGEYRLSVTSNDTGLDNAMTLSVSGDDALQSFMGYDASASSNGMEVSVAAQNAQLTVNNVAIENSSNTISDALENITLNLNDVTTGNQTLTITQDTSKAQTAIKDWVNAYNSLIDTFSSLTKYTAVDAGADSQSSSNGALLGDSTLRTIQTQLKSMLSNTVSSSSYKTLAQIGITTDPSDGKLELDADKLTAALKKDASGVGALIVGDGKKTGITTTIGSNLTSWLSTTGIIKAATDGVSKTLNKLTKDYNAASDRIDAQVARYKEQFTQLDVLMTSLNSTSSYLTQQFENNSNSKEGGS | soluble
10 | MGHHHHHHGSDSEVNQEAKPEVKPEVKPETHINLKVSDGSSEIFFKIKKTTPLRRLMEAFAKRQGKEMDSLRFLYDGIRIQADQAPEDLDMEDNDIIEAHREQIGGDSEVNQEAKPEVKPEVKPETHINLKVSDGSSEIFFKIKKTTPLRRLMEAFAKRQGKEMDSLRFLYDGIRIQADQAPEDLDMEDNDIIEAHREQIGGMFMAKITGSVVSTKKEDSLTGKKLMIVQPIDANGEHVRSEEVACDSVGAGIGEYVLVARGNAARSVFAEPNSAIDSAIIAIVDSFDK | soluble
11 | MGHHHHHHSHDVPEMPSIPNPFPELCCSPFTSVLSADLFPKANSRKKQVIKVYSEDETSRALDVPSDITARDVCQLLILKNHYIDDHSWTLFEHLPHIGVERTIEDHELVIEVLSNWGIEEENKLYFRKNYAKYEFFKNP | not soluble
12 | MGHHHHHHSHEMLPEIGEEKVAIIAPSPSDHPQFKEILQHYVEQGKEVSPSSVRADTLDEELADLLKKAGVKTLTIAPETASDKLQEVINKGIGDEEVMRAAELASTRFEKVKLYYMVGLPGESFEDVKAILEQALRVKKLVGKVEISVNPLVPKPHTPLQWMGFGGEEELREGISHLKKKLEYLRREARRAGIGADVSGFKEFAIQTILSRGDREVAEML | soluble
13 | MGHHHHHHSHGLNSSRNLLIISQKSDQILNYITNGADRGATKIPVLGGHTGHSQNMIMTTLSTHEVPKVQEEIQKIDETAFIVIIPASTVMGRGFSLQKDYKSVPNDFINP | soluble
14 | MGHHHHHHSHGQSLIVLQNVGGGEAGPQEMSGVQLQPLRPAPEVTTVQLQPAQEVTTVQLQPAQEVTTVQLQPAQEVTTVQLQPVAGQLSNSSGGAVATEAPNLLVVQSGAAEELLTGPGPGEAGDGEASTGVVQDVLFETLQTDEGLQSVLVLSGADGEQTRLCVQEVETLPPGLTEPPATGPPGQKLLIIRSAPATELLDSSNTWRRHRPRCNFLAPPAV | not soluble
15 | MGHHHHHHSHKGLIDEITKKNIQLKKEIQKLETELQEATKEFQIKEDIPETKMKFLSVETPENDSQLSNISCSFQVSSKVPYEIQKGQALITFEKEEVAQNVVSMSKHHVQIKDVNLEVTAKPVPLNSGVRFQVYVEVSKMKINVTEIPDTLREDQMRDKLELSFSKFRNGGGEVDRVDYDRQSGSAVITFVEIGVADKILKKKEYPLYINQTCHRVTVSPYTEIHLKKYQIFSGTSKRTVLLTGMEGIQMDEEIVEDLINIHFQRAKNGGGEVDVVKCSLGQPHIAYFEE | not soluble
16 | MGHHHHHHSHKRVVLKLSGEALAGEKGFGINPVIIKSVAEQVAEVAKMDCEIAVIVGGGNIWRGKTGSDLGMDRGTADYMGMLATVMNALALQDSLEQLDCDTRVLTSIEMKQVAEPYIRRRAIRHLEKKRVVIFAAGIGNPYFSTDTTAALRAAEVEADVILMGKNNVDGVYSADPKVNKDAVKYEHLTHIQMLQEGLQVMDSTASSFCMDNNIPLTVFS | not soluble
17 | MGHHHHHHSHMAAAFRKAAKSRQREHRERSQPGFRKHLGLLEKKKDYKLRADDYRKKQEYLKALRKKALEKNPDEFYYKMTRVKLQDGVHIIKETKEEVTPEQLKLMRTQDVKYIEMKRVAEAKKIERLKSELHLLDFQGKQQNKHVFFFDTKKEVEQFDVATHLQTAPELVDRVFNRPRIETLQKEKVKGVTNQTGLKRIAKERQKQYNCLTQRIEREKKLFVIAQKIQTRKDLMDKTQKVKVKKETVNSPAIYKFQSRRKR | soluble
18 | MGHHHHHHSHMAERCFQQAIAFQASCAAVEACFQDLELMHRWLNPLLRCRPEGDWNLDRGSRNRFQIQIPLIYPSLECVVCDRAEGLIVWQFEGFFQGTDTWRWWQEGEHTQLDNCFRFRIAKPWVAWGFDRVAAGVTQRDMQAQLQRLKAIAETLPVASTVTDNLP | not soluble
19 | MGHHHHHHSHMAFCAILLVPSLCRMPSLPTSPWAFPVHWAGFMFKPLDWQGNDFFPPQDEVLAPLSWHKNTFKA | not soluble
20 | MGHHHHHHSHMAFPPGALHPLPKRQALEKSNGTSAVFNPSVLHYQQALTSAQLQQHAAFIPTDNSEIISRNGMECQESALRITKHCYCTYYPVSSSIELPQTAC | not soluble
21 | MGHHHHHHSHMAGTALKRLMAVYKQLTLNPPEGIVAGPMNEENFFEWEALIMGPEDTCFEFGVFPAILSFPLDYPLSPPKMRFTCEMFHPNIYPDGRVCISILHAPGDDPHGLREQPERWSPVQSVEKILLSVVSMLAEPNDESGANVDASKMWRDDREQFYKIAKQIVQKSLGL | not soluble
22 | MGHHHHHHSHMAHYLFNPFYLRLDCDLSKAYIHRIFASFYMEKEADAHTNEKRSKPMTQQYIVEPKKGLGLKLKKGQILKVVDVEGQQVADFVAYHAKDSYEHLDQGATIDAIHSIHVKVSDHLYSNPVLSRWLPLIEDTGPASMICCWPACRPDIEQALIWEAKRMSFRIRAMTICAVRLSSLAYRSPTCITHLRYCMDTVLDEEGNLSVETPLSDAGDYVRLRAEMDLIVAFSSCPRCNRDIQWRQCDIHTG | not soluble
23 | MGHHHHHHSHMASSTSLPAPGSRPKKPLGKMADWFRQTLLKKPKKRPNSPESTSSDASQPTSQDNPLPPSLSSVTSPSLPPTHASDSGSSRWSKDYDVCVCHSEEDLVAAQDLVSYLEGSTASLRCFLQLRDATPGGAIVSELCQALSSSHCRVLLITPGFLQDPWCKYQMLQALTEAPGAEGCTIPLLSGLSRAAYPPELRFMYYVDGRGPDGGFRQVKEAVMRCKLLQEGEGERDSATVSDLL | soluble
24 | MGHHHHHHSHMATLIYVDKEIGEPGTRVAAKDVLKLESRPSIKALDGISQVLTPRFGKTYDAPSALPKATRKALGTVNRATEKSVKTNGPRKQKQPSFSAKKMTEKTVKTKSSVPASDDAYPEIEKFFPFNLLDFESFDLPEERQIAHLPLSGVPLMILDEEGELEKLFQLGPPSPVKMPSPPWECNLFAVSFKHSVDPGC | not soluble
25 | MGHHHHHHSHMDDIFTQCREGNAVAVRLWLDNTENDLNQGDDHGFSPLHWACREGRSAVVEMLIMRGARINVMNRGDDTPLHLAASHGHRDIVQKLLQYKADINAVNEHGNVPLHYACFWGQDQVAEDLVANGALVSICNKYGEMPVDKAKAPLRELLRERAEK | not soluble
26 | MGHHHHHHSHMFSEECIMDVIGCLEYDPALSQPRKHREFLTKTAKFKEVIPISDPELKQKIHQTYRVQYIQDMVLPTPSVFEENMLSTLHSFIFFNKVEIVGMLQEDEKFLTDLFAQLTDEATDEEKRQELVNFLKEFCAFSQTLQPQNRDAFFKTLSNMGILPALEVILGMDDTQVRSAATDIFSYLVEYNPSMVREFVMQEAQQNDDVSKKLTEQKITSKVNIICTNSKYLYIGSYNCFYYSF | soluble
27 | MGHHHHHHSHMHSLATAAPVPTTLAQVDREKIYQWINELSSPETRENALLELSKKRESVPDLAPMLWHSFGTIAALLQEIVNIYPSINPPTLTAHQSNRVCNALALLQCVASHPETRSAFLAAHIPLFLYPFLHTVSKTRPFEYLRLTSLGVTGALVKTDEQEVINFLLTTEIIPLCLRIMESGSELSKTVATFILQKILLDDTGLAYICQTYERFSHVAMILGKMVLQLSKEPSARLLKHVVRCYLRLSDNPRFSDLTFCWSSFQRK | not soluble
28 | MGHHHHHHSHMIEVLTTTDSQKLLHQLNALLEQESRCQPKVCGLRLIESAHDNGLRMTARLRDFEVKDLLSLTQFFGFDTETFSLAVNLLDRFLSKMKVQPKHLGCVGLSCFYLAVKSIEEERNVPLATDLIRISQYRFTVSDLMRMEKIVLEKVCWKVKATTAFQFLQLYYSLLQENLPLERRNSINFERLEAQLKACHCRIIFSKAKPSVLALSIIALEIQAQKCVELTEGIECLQKHSKINGRDLTFWQELVSKCLTEYSSNKCSKPNVQKLKWIVSGRTARQLKHSYYRITHLPTIPEMVP | not soluble
